Ends that are not written are not given here. * marks the point of attachment. Biotin = O=C1N[C@H]2[C@H](CS[C@H]2CCCCC(=O)*)N1

One assay concerns the target SteC_(210-429;K256H) (Salmonella Typhimurium strain 14028s, UniProt D0ZIB5 210-429, K256H). Kind of assay: BLI; […] (1 ug/ml) […] (SA) biosensors; […]; Octet Red, 25 °C; 50 mM HEPES pH 7.5, 150 mM NaCl, 10 mM MgCl2, 0.5 mM TCEP, 0.05% Tween-20; […]. The following applies: both partners purified.
Another assay concerns the target SteC_(210-429) WT (Salmonella Typhimurium strain 14028s, UniProt D0ZIB5 210-429). The description is as above. As to conditions: both partners purified.

Broadly, the Kd is the concentration at which binding is half-saturated. Read a high Kd as weaker binding. Consider Biotin-KGPPSSVPKSRHLTIKLTPAHSRK (peptide, UniProt O95466 190-213, looked up) [N-terminally biotinylated FMNL1 peptide], for which the Kd with SteC_(210-429;K256H) was determined as 22 µM; with SteC_(210-429) WT it was 7.9 µM.

These data come from article doi:10.1101/2025.03.01.640964 (bioRxiv, 2025).
